According to the Human Domainome abundance scans (Beltran et al. 2025):
± gives the uncertainty stated by the source.

B1: Intersectin-1, residues 909 to 971; numbered along this chain, Q15811 (parent)
chain: QGEKVEGLQAQALYPWRAKKDNHLNFNKNDVITVLEQQDMWWFGEVQGQKGWFPKSYVKLISG
B2: Chromodomain-helicase-DNA-binding protein 4, residues 444 to 496; numbered along this chain, Q14839 (parent)
chain: EDDHHMEFCRVCKDGGELLCCDTCPSSYHIHCLNPPLPEIPNGEWLCPRCTCP

Variants of: B1
Experiment: abundance fitness (aPCA) (normalised: wild type 0, dead -1); higher = more abundant; growth selection in yeast, the domain comes from the species named
Conditions: Homo sapiens

In order of rising abundance fitness:
1. Q11D  -0.728 ± 0.47
2. W41R  -0.6 ± 0.092
3. V46E  -0.584 ± 0.13
4. D30H  -0.511 ± 0.11
5. Q49K  -0.483 ± 0.42
6. G2P  -0.423 ± 0.19
7. Q11E  -0.33 ± 0.13
8. E3T  -0.305 ± 0.26
9. L60N  -0.254 ± 0.18
10. S56M  -0.238 ± 0.12
11. P15K  -0.14 ± 0.23
12. A18M  -0.09 ± 0.11
13. N29D  -0.081 ± 0.13
14. Y57T  -0.013 ± 0.16
15. V31M  0.003 ± 0.043
16. G63D  0.07 ± 0.14

Variants of: B2
Experiment: as above
Conditions: Homo sapiens

In order of falling abundance fitness:
1. D2F  0.463 ± 0.069
2. D3M  0.397 ± 0.065
3. D3I  0.393 ± 0.069
4. D2K  0.378 ± 0.043
5. E1N  0.354 ± 0.27
6. D3L  0.342 ± 0.046
7. D3Y  0.319 ± 0.069
8. D3K  0.304 ± 0.073
9. H4F  0.301 ± 0.064
10. D2M  0.278 ± 0.077
11. D3T  0.277 ± 0.05
12. D3C  0.27 ± 0.068
13. D2G  0.26 ± 0.082
14. D3Q  0.221 ± 0.062
15. H5F  0.219 ± 0.098
16. D2V  0.217 ± 0.059
17. D2S  0.202 ± 0.045
18. D3W  0.201 ± 0.045
19. H5K  0.199 ± 0.057
20. H4N  0.197 ± 0.058
21. D2E  0.188 ± 0.073
22. H5I  0.165 ± 0.084
23. D2L  0.163 ± 0.05
24. E1M  0.156 ± 0.28
25. F8E  0.138 ± 0.082
26. H4D  0.125 ± 0.091
27. H4K  0.119 ± 0.058
28. H5E  0.116 ± 0.055
29. H4M  0.107 ± 0.046
30. H5G  0.106 ± 0.044
31. D3S  0.105 ± 0.049
32. D3H  0.1 ± 0.075
33. H5Y  0.097 ± 0.075
34. H5R  0.096 ± 0.043
35. H5A  0.092 ± 0.047
36. D2N  0.091 ± 0.056
37. F8G  0.086 ± 0.071
38. H4Y  0.078 ± 0.088
39. H5Q  0.074 ± 0.067
40. H5C  0.068 ± 0.085
41. D3R  0.06 ± 0.038
42. D2A  0.05 ± 0.057
43. D2R  0.033 ± 0.065
44. H4C  0.032 ± 0.042
45. M6T  0.028 ± 0.047
46. H4I  0.025 ± 0.056
47. M6A  0.023 ± 0.047
48. M6D  0.023 ± 0.05
49. H5W  0.02 ± 0.054
50. H5T  0.019 ± 0.057
51. D2Y  0.016 ± 0.076
52. F8V  0.012 ± 0.047
53. E7F  -0.002 ± 0.06
54. H4T  -0.004 ± 0.041
55. H5N  -0.006 ± 0.077
56. H4V  -0.008 ± 0.042
57. F8I  -0.019 ± 0.05
58. M6I  -0.021 ± 0.048
59. F8R  -0.033 ± 0.047
60. D2H  -0.036 ± 0.057
61. H4R  -0.04 ± 0.051
62. F8W  -0.041 ± 0.062
63. F8N  -0.044 ± 0.069
64. E7D  -0.048 ± 0.064
65. F8C  -0.048 ± 0.059
66. M6N  -0.055 ± 0.062
67. M6G  -0.056 ± 0.049
68. H4Q  -0.058 ± 0.055
69. E1V  -0.059 ± 0.054
70. F8M  -0.073 ± 0.063
71. F8T  -0.091 ± 0.055
72. F8A  -0.103 ± 0.061
73. F8K  -0.103 ± 0.062
74. H5P  -0.11 ± 0.051
75. H5M  -0.12 ± 0.067
76. E7L  -0.121 ± 0.042
77. F8S  -0.124 ± 0.045
78. H4E  -0.126 ± 0.048
79. H4W  -0.126 ± 0.059
80. H5S  -0.129 ± 0.048
81. H5V  -0.135 ± 0.053
82. H4A  -0.14 ± 0.042
83. M6S  -0.147 ± 0.038
84. E7C  -0.15 ± 0.086
85. H4L  -0.162 ± 0.043
86. F8L  -0.164 ± 0.051
87. F8D  -0.166 ± 0.06
88. D3P  -0.174 ± 0.064
89. D3V  -0.174 ± 0.05
90. E7R  -0.174 ± 0.069
91. E1Y  -0.175 ± 0.1
92. D3E  -0.187 ± 0.057
93. M6F  -0.204 ± 0.04
94. E7V  -0.205 ± 0.058
95. M6C  -0.207 ± 0.05
96. D3A  -0.211 ± 0.045
97. E7H  -0.22 ± 0.067
98. E1T  -0.221 ± 0.19
99. E7Q  -0.224 ± 0.074
100. M6W  -0.231 ± 0.04
101. E1L  -0.235 ± 0.078
102. E7G  -0.239 ± 0.085
103. F8H  -0.249 ± 0.043
104. E1I  -0.265 ± 0.35
105. E1G  -0.289 ± 0.046
106. D3G  -0.292 ± 0.057
107. H4P  -0.294 ± 0.04
108. H5L  -0.305 ± 0.044
109. E1F  -0.306 ± 0.38
110. D2W  -0.334 ± 0.093
111. E7S  -0.364 ± 0.061
112. E7A  -0.366 ± 0.07
113. F8P  -0.388 ± 0.045
114. E7P  -0.401 ± 0.052
115. H4S  -0.409 ± 0.045
116. D2C  -0.425 ± 0.13
117. E7M  -0.433 ± 0.05
118. E1P  -0.436 ± 0.22
119. M6R  -0.477 ± 0.051
120. E7I  -0.481 ± 0.072
121. C9E  -0.483 ± 0.1
122. E1Q  -0.486 ± 0.16
123. E7K  -0.492 ± 0.061
124. E1S  -0.507 ± 0.18
125. M6Q  -0.508 ± 0.042
126. E1A  -0.531 ± 0.13
127. C9G  -0.535 ± 0.094
128. C9K  -0.54 ± 0.051
129. C9R  -0.571 ± 0.066
130. E7W  -0.599 ± 0.095
131. C9D  -0.601 ± 0.11
132. E7T  -0.618 ± 0.073
133. E1R  -0.625 ± 0.28
134. E7N  -0.664 ± 0.065
135. M6L  -0.665 ± 0.041
136. C9Q  -0.668 ± 0.07
137. C9N  -0.689 ± 0.054
138. E1D  -0.693 ± 0.1
139. M6H  -0.713 ± 0.043
140. C9A  -0.777 ± 0.11
141. C9H  -0.79 ± 0.064
142. C9P  -0.797 ± 0.052
143. E7Y  -0.813 ± 0.055
144. C9T  -0.815 ± 0.061
145. C9I  -0.827 ± 0.083
146. C9W  -0.844 ± 0.15
147. C9S  -0.849 ± 0.068
148. E1W  -0.898 ± 0.43
149. C9Y  -0.979 ± 0.13
150. C9M  -0.98 ± 0.1
151. C9V  -0.988 ± 0.11
